The target in the test is T1, PatGmac H618A (Prochloron sp., UniProt Q52QJ1 492-851, H618A).
T1 sequence: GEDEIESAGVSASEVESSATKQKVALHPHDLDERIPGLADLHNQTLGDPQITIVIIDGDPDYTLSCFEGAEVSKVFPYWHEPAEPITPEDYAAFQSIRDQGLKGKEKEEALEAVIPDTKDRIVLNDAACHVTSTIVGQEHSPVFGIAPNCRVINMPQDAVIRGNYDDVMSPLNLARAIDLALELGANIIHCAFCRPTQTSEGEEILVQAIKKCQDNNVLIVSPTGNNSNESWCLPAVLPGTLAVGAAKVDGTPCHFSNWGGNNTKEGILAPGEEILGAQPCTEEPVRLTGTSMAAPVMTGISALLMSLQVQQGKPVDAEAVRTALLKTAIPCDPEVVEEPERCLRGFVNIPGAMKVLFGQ
In words: crystal structure.

VPAPIPFPAYDG [VPAPIPFPAYDG peptide (substrate mimic)]: the binding result is “binds”.
